Results on 13 molecules are retold here after patent EP1516629B1.

The target in one test is T1, human CD11a (human) (UniProt P20701).
T1 sequence (looked up): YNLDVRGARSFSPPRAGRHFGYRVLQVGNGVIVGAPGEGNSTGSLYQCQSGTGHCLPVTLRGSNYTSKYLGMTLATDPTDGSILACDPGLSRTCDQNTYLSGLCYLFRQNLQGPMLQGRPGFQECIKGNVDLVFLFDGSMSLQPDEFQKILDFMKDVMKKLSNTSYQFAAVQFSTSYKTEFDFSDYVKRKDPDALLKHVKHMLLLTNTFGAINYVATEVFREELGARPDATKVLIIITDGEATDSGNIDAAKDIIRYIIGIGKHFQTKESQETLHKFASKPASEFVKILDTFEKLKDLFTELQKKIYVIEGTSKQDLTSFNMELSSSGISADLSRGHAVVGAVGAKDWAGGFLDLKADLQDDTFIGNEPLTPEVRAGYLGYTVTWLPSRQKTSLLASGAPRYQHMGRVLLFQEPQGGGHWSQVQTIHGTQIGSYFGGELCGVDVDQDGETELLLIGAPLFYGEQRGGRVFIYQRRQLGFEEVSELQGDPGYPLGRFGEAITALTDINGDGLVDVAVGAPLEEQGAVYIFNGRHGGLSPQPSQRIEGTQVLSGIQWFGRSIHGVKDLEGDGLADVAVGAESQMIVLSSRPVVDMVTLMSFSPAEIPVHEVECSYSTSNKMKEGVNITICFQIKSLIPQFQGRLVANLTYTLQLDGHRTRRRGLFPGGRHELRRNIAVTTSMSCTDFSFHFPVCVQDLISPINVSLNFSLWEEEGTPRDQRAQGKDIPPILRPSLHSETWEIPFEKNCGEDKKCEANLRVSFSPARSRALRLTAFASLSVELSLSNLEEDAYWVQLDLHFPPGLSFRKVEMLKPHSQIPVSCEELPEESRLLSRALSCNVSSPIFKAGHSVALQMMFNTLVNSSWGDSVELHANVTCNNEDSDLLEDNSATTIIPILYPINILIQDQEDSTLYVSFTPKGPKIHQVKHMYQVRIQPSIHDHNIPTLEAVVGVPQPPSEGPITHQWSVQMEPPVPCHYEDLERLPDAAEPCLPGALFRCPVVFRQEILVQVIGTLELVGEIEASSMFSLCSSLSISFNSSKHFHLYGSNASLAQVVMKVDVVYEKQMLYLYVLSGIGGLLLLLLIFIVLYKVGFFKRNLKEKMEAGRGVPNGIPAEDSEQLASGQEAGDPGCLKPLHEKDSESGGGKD
Put plainly: FACScan, Jurkat cells.

The next test concerns the target T2, rhesus CD11a (rhesus) (UniProt H9Z8N3).
T2 sequence: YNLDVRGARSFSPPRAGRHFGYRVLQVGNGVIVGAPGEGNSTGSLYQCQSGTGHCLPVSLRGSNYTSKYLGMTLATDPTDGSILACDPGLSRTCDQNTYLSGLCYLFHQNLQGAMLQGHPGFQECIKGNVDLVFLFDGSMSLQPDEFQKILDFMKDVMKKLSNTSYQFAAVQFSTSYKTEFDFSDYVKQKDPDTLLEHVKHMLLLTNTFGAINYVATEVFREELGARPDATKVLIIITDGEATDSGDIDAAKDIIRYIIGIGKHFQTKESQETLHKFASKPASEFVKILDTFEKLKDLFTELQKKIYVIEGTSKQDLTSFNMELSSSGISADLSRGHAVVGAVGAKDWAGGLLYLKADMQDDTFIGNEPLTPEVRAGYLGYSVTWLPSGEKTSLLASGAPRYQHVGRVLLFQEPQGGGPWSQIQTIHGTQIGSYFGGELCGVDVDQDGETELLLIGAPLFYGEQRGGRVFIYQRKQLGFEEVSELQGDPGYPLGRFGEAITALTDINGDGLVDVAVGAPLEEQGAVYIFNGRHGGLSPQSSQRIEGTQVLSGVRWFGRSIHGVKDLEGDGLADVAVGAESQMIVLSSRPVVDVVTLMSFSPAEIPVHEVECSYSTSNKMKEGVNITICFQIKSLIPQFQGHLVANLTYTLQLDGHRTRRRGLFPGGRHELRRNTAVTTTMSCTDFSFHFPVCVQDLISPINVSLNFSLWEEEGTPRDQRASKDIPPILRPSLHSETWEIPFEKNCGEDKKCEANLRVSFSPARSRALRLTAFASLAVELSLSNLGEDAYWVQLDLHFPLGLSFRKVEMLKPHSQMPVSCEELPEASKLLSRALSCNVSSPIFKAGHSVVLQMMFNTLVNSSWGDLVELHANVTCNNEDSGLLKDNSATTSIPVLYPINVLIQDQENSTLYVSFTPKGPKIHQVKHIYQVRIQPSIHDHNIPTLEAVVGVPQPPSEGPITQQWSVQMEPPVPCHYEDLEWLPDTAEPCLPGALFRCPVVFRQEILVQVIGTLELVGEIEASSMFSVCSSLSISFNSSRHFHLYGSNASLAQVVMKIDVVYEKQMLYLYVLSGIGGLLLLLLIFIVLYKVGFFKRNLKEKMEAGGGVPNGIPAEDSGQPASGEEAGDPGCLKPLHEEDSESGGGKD
Put plainly: binding to rhesus peripheral blood lymphocytes.

B1: L1 variant IgG1 (antibody, V domains shown)
VH: EVQLVESGGGLVQPGGSLRLSCAASGYSFTGHWMNWVRQAPGKGLEWVGMIHPSDSETRYNQKFKDRFTISVDKSKNTLYLQMNSLRAEDTAVYYCARGIYFYGTTYFDYWGQGTLVTVSS
VL: DIQMTQSPSSLSASVGDRVTITCRASAAIAAYLAWYQQKPGKAPKLLIYSGSTLQSGVPSRFSGSGSGTDFTLTISSLQPEDFATYYCQQHNEYPLTFGQGTKVEIKR
B1: the Var.EC50/HuIgG1 EC50 came out at 1.3 with human CD11a (human) and 1 with rhesus CD11a (rhesus).

B2: ThrH100aAla variant IgG1 (antibody, V domains shown)
VH: EVQLVESGGGLVQPGGSLRLSCAASGYSFTGHWMNWVRQAPGKGLEWVGMIHPSDSETRYNQKFKDRFTISVDKSKNTLYLQMNSLRAEDTAVYYCARGIYFYGATYFDYWGQGTLVTVSS
VL: DIQMTQSPSSLSASVGDRVTITCRASKTISKYLAWYQQKPGKAPKLLIYSGSTLQSGVPSRFSGSGSGTDFTLTISSLQPEDFATYYCQQHNEYPLTFGQGTKVEIK
In turn, B2 gave a Var.EC50/HuIgG1 EC50 in the test with human CD11a (human) of 2.3.

B3: TyrH100cAla variant IgG1 (antibody, V domains shown)
VH: EVQLVESGGGLVQPGGSLRLSCAASGYSFTGHWMNWVRQAPGKGLEWVGMIHPSDSETRYNQKFKDRFTISVDKSKNTLYLQMNSLRAEDTAVYYCARGIYFYGTTAFDYWGQGTLVTVSS
VL: DIQMTQSPSSLSASVGDRVTITCRASKTISKYLAWYQQKPGKAPKLLIYSGSTLQSGVPSRFSGSGSGTDFTLTISSLQPEDFATYYCQQHNEYPLTFGQGTKVEIK
Consider B3, for which, in the test with human CD11a (human), the Var.EC50/HuIgG1 EC50 worked out at 7.6.

B4: SerL50Ala variant IgG1 (antibody, V domains shown)
VH: EVQLVESGGGLVQPGGSLRLSCAASGYSFTGHWMNWVRQAPGKGLEWVGMIHPSDSETRYNQKFKDRFTISVDKSKNTLYLQMNSLRAEDTAVYYCARGIYFYGTTYFDYWGQGTLVTVSS
VL: DIQMTQSPSSLSASVGDRVTITCRASKTISKYLAWYQQKPGKAPKLLIYAGSTLQSGVPSRFSGSGSGTDFTLTISSLQPEDFATYYCQQHNEYPLTFGQGTKVEIKR
On to B4, for which the Var.EC50/HuIgG1 EC50 with human CD11a (human) was 1.2; with rhesus CD11a (rhesus) it was 2.7.

B5: H2C6 variant IgG1 (antibody, V domains shown)
VH: EVQLVESGGGLVQPGGSLRLSCAASGYSFTGHWMNWVRQAPGKGLEWVGMIAPANSQTRYNQKFKDRFTISVDKSKNTLYLQMNSLRAEDTAVYYCARGIYFYGTTYFDYWGQGTLVTVSS
VL: DIQMTQSPSSLSASVGDRVTITCRASKTISKYLAWYQQKPGKAPKLLIYSGSTLQSGVPSRFSGSGSGTDFTLTISSLQPEDFATYYCQQHNEYPLTFGQGTKVEIK
B5: in the test with rhesus CD11a (rhesus), the Var.EC50/HuIgG1 EC50 was 0.21.

B6: H2C14 variant IgG1 (antibody, V domains shown)
VH: EVQLVESGGGLVQPGGSLRLSCAASGYSFTGHWMNWVRQAPGKGLEWVGMIAPASSATRYNQKFKDRFTISVDKSKNTLYLQMNSLRAEDTAVYYCARGIYFYGTTYFDYWGQGTLVTVSS
VL: DIQMTQSPSSLSASVGDRVTITCRASKTISKYLAWYQQKPGKAPKLLIYSGSTLQSGVPSRFSGSGSGTDFTLTISSLQPEDFATYYCQQHNEYPLTFGQGTKVEIK
In the test with rhesus CD11a (rhesus), B6 gave a Var.EC50/HuIgG1 EC50 of 0.021.

B7: AsnL92Ala variant IgG1 (antibody, V domains shown)
VH: EVQLVESGGGLVQPGGSLRLSCAASGYSFTGHWMNWVRQAPGKGLEWVGMIHPSDSETRYNQKFKDRFTISVDKSKNTLYLQMNSLRAEDTAVYYCARGIYFYGTTYFDYWGQGTLVTVSS
VL: DIQMTQSPSSLSASVGDRVTITCRASKTISKYLAWYQQKPGKAPKLLIYSGSTLQSGVPSRFSGSGSGTDFTLTISSLQPEDFATYYCQQHAEYPLTFGQGTKVEIKR
On to B7, for which the Var.EC50/HuIgG1 EC50 with human CD11a (human) and with rhesus CD11a (rhesus) was 3.3 throughout.

B8: ThrH100bAla variant IgG1 (antibody, V domains shown)
VH: EVQLVESGGGLVQPGGSLRLSCAASGYSFTGHWMNWVRQAPGKGLEWVGMIHPSDSETRYNQKFKDRFTISVDKSKNTLYLQMNSLRAEDTAVYYCARGIYFYGTAYFDYWGQGTLVTVSS
VL: DIQMTQSPSSLSASVGDRVTITCRASKTISKYLAWYQQKPGKAPKLLIYSGSTLQSGVPSRFSGSGSGTDFTLTISSLQPEDFATYYCQQHNEYPLTFGQGTKVEIK
For B8, the Var.EC50/HuIgG1 EC50 with human CD11a (human) was 1.4.

B9: AspH54Lys variant IgG1 (antibody, V domains shown)
VH: EVQLVESGGGLVQPGGSLRLSCAASGYSFTGHWMNWVRQAPGKGLEWVGMIHPSKSETRYNQKFKDRFTISVDKSKNTLYLQMNSLRAEDTAVYYCARGIYFYGTTYFDYWGQGTLVTVSS
VL: DIQMTQSPSSLSASVGDRVTITCRASKTISKYLAWYQQKPGKAPKLLIYSGSTLQSGVPSRFSGSGSGTDFTLTISSLQPEDFATYYCQQHNEYPLTFGQGTKVEIK
In the test with rhesus CD11a (rhesus), B9 displayed a Variant EC50/HulgG1 EC50 of 3.8.

B10: SerL52Ala variant IgG1 (antibody, V domains shown)
VH: EVQLVESGGGLVQPGGSLRLSCAASGYSFTGHWMNWVRQAPGKGLEWVGMIHPSDSETRYNQKFKDRFTISVDKSKNTLYLQMNSLRAEDTAVYYCARGIYFYGTTYFDYWGQGTLVTVSS
VL: DIQMTQSPSSLSASVGDRVTITCRASKTISKYLAWYQQKPGKAPKLLIYSGATLQSGVPSRFSGSGSGTDFTLTISSLQPEDFATYYCQQHNEYPLTFGQGTKVEIKR
With B10, the Var.EC50/HuIgG1 EC50 came to 1.1 in the test with human CD11a (human) and 13.3 with rhesus CD11a (rhesus).

B11: AspH54Ser variant IgG1 (antibody, V domains shown)
VH: EVQLVESGGGLVQPGGSLRLSCAASGYSFTGHWMNWVRQAPGKGLEWVGMIHPSSSETRYNQKFKDRFTISVDKSKNTLYLQMNSLRAEDTAVYYCARGIYFYGTTYFDYWGQGTLVTVSS
VL: DIQMTQSPSSLSASVGDRVTITCRASKTISKYLAWYQQKPGKAPKLLIYSGSTLQSGVPSRFSGSGSGTDFTLTISSLQPEDFATYYCQQHNEYPLTFGQGTKVEIK
For B11, in the test with rhesus CD11a (rhesus), the Variant EC50/HulgG1 EC50 amounted to 0.9.

B12: ThrL53Ala variant IgG1 (antibody, V domains shown)
VH: EVQLVESGGGLVQPGGSLRLSCAASGYSFTGHWMNWVRQAPGKGLEWVGMIHPSDSETRYNQKFKDRFTISVDKSKNTLYLQMNSLRAEDTAVYYCARGIYFYGTTYFDYWGQGTLVTVSS
VL: DIQMTQSPSSLSASVGDRVTITCRASKTISKYLAWYQQKPGKAPKLLIYSGSALQSGVPSRFSGSGSGTDFTLTISSLQPEDFATYYCQQHNEYPLTFGQGTKVEIKR
For the molecule B12, the Var.EC50/HuIgG1 EC50 is 0.9 with human CD11a (human) and 0.7 in the test with rhesus CD11a (rhesus).

B13: H2C4 variant IgG1 (antibody, V domains shown)
VH: EVQLVESGGGLVQPGGSLRLSCAASGYSFTGHWMNWVRQAPGKGLEWVGMIAPANSATRYNQKFKDRFTISVDKSKNTLYLQMNSLRAEDTAVYYCARGIYFYGTTYFDYWGQGTLVTVSS
VL: DIQMTQSPSSLSASVGDRVTITCRASKTISKYLAWYQQKPGKAPKLLIYSGSTLQSGVPSRFSGSGSGTDFTLTISSLQPEDFATYYCQQHNEYPLTFGQGTKVEIK
Molecule B13 yielded a Var.EC50/HuIgG1 EC50 with rhesus CD11a (rhesus) of 0.38.
